In the nanobody polyreactivity screen of Harvey et al. (2022):

Assay: yeast display, Sf9 membrane polyspecificity reagent, FACS + sequencing; frameworks hold sequencing errors
In short: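 Nanobodies from a synthetic yeast display library (Saccharomyces cerevisiae BJ5465), induced 36–48 hours with galactose, were stained 1 hour at 4 °C with 10% biotinylated, detergent-solubilized Sf9 membrane reagent, enriched on streptavidin microbeads, then FACS-sorted. Anti-HA (expression) and streptavidin (reagent binding) fluorescence set low and high (top ~1%) gates. Polyreactivity labels come from the gate of origin. Genes were colony-PCR amplified, MiSeq 2 × 250 sequenced and filtered by CDR length.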

Sequence	polyreactivity (PSR sort gate)
QVQLVESGGGLVQAGGSLRISCAASGFTFYSNDMGWYRQAPGKERELVAAISYSGGSTYYADSVKGRFTISRDNAKNTVYLQMNSLKPEDTAVYYCAAGGLQQGDYWGQGTQVTVSS	low polyreactivity
QVQLVESGGGLVQAGGSLRISCAASGGNFDSNAMGWTRPAPGKVRELVAAISDSGGSTYYADSVKGRFTISRDNAYNTVYLQMNSLKPEDTAVYYCAADSDYHFVNYRFGMDYWGQGTQVTVSS	low polyreactivity
QVQLVESGGGLVQAGGSLRISCAASGIFPAYDMGWYRQAPGKERELVASISSDGSTYYADSVKGRFTISRDNAKNTVYLQMNSLKPEDTAVYYCNDVAIEPYYYVVYDIFDYWGQGTQVTVSS	low polyreactivity
QVQLVESGGGLVQAGGSLRISCAASGIIFAANTMGWYRQAPGKERELVAAITSGGSTKYADSVKGRFTISRDNAKNTVYLQMNSLKPEDTAVYYCAAQYRYQRYSYAMEYWGQGTQVTVSS	high polyreactivity
QVQLVESGGGLVQAGGSLRISCAASGIIFDTNAMGWYRQAPGKERELVATITQRGGTTYYADSVKGRFTISRDNAKNTVYLQMNSLKPEDTAVYYCAKDYWFGYEYWGQGTQVTVSS	low polyreactivity
QVQLVESGGGLVQAGGSLRISCAASGITFNVNAMGWSRQAPGKERELVARITTSGGSTSYADSVKGRFTISRDNAKNTVYLQMNSLKPEDTAVYYCAADRARYYSEYDYWGQGTQVTVSS	low polyreactivity
QVQLVESGGGLVQAGGSLRISCAASGITFSYYAMGWYTPAPGKERELVAAINSGGGSTYYADSVKGRFTISRDNAKNTVYLQMNSLKPEDTAVYYCSARYRSRYDYYYDRDYWGQGTQVTVSS	low polyreactivity
QVQLVESGGGLVQAGGSLRISCAASGITFYGYAMGWYRQAPGKERELVATISKSGGITSYADSVKGRFSISRDNAKNTVYLQMNSLKPEETAVYYCNRGKSYGGYDYWGQGTQVTVSS	low polyreactivity
QVQLVESGGGLVQAGGSLRISCAASGLIFGRYAMGWYRQAPGKERELVAAISSSGVRTYYADSVKGRFTISRDNAKNTVYLQMNSLKPEDTAVYYCAAAYWSSREDTVIKRYYWGQGTQVTVSS	high polyreactivity
QVQLVESGGGLVQAGGSLRISCAASGLIFYSYAMGWYRQAPGKERELVAAISSGTRTYYADSVKGRFTISRDNAKNTVYLQMNSLKPEDTAVYYCAAVDAHKKRYPPSGRLYGYWGQGTQVTVSS	high polyreactivity
QVQLVESGGGLVQAGGSLRISCAASGLIIAYAMGWYRPAPGKERELVAASSGRDGSTYYADSVKGRFTISRDNAKNTVYLHMNSLKPEATAVYYCAKRISYLPVEMDYWGQGTQLTVSS	low polyreactivity
QVQLVESGGGLVQAGGSLRISCAASGLTILFYAMAWYRQAPGKERELVASIRWSDGRTYYADSVKGRFTISRDNAKNTVYLQMNSLKPEDTAVYYCAARSYLTPEYYYWGQGTQVTVSS	high polyreactivity
QVQLVESGGGLVQAGGSLRISCAASGLTSPIYAMGWYRQAPGKERELDAAISKNGGSTYYADSVKGRFTISRDNAKNTVYVQMNSLKPEDTAVYYCNAVVYHYTLDHEYDYWGQGTQVTVSS	high polyreactivity
QVQLVESGGGLVQAGGSLRISCAASGLYAMGWYRQAPGKERELVADINSSGGSITNYADSVKGRFTISRDNAKNTVYLQMNSLKPEDTAVYYCNPDVPGDTGWWGFDYWGQGTQVTVSS	low polyreactivity
QVQLVESGGGLVQAGGSLRISCAASGNTFWKYAMGWYRQAPGKERELVAAISKSGGSTYYADSVKGRFTISRDNAKNTVYLQMNSLKPEDTAVYYCAAVNYRWYSRNYDHYYWGQGTQVTVSS	high polyreactivity
QVQLVESGGGLVQAGGSLRISCAASGRIFGANAMGWYRQAPAKERELVAAITSSGGNTYYADSVKGRFTISRDNAKNTVYLQMNCLKPEDTAVYYWSARSRWVSYNYWGQGTQVTVSS	high polyreactivity
QVQLVESGGGLVQAGGSLRISCAASGRIFIWYDMGWYRQAPGKERELVAAITQSDDITYYADSVKGRFTISRDNAKNTVYLQMNSLKPEDTAVYYCAARVLETSTPYGYWGQGTQVTVSS	low polyreactivity
QVQLVESGGGLVQAGGSLRISCAASGRIFSEYAMGWYRQAPGKERELVATITWTGGSTTYADSVKGRFTISRDNAKNTVYLQINSLKPEDTAVYYCAADATRLRTRYKRDYWGQGTQVTVSS	high polyreactivity
QVQLVESGGGLVQAGGSLRISCAASGRIFWANVMGWYRQAPGKERELVAAITGGGRTYYADSVKGRFTISRDNAKNTVYLQMNSLKPEDTAVYYCNAELNWYYYIHLDYWGQGTQVTVSS	low polyreactivity
QVQLVESGGGLVQAGGSLRISCAASGRIFYVYAMGWYRQAPGKERELVAAITSGGSTYYADSVKGRFTISRDNAKNTVYLQMNSLKPEDTAVYYCAAYNRGRFRPYRFEYWGQGTQVTVSS	high polyreactivity
QVQLVESGGGLVQAGGSLRISCAASGRILLRNVMGWYRQAPGKERELVAVITRTGITYYAYSVKGRFTISRDNAKNTVYLQMNSLKPEDTAVYYCAAGLPKYEHDYWGQGTQVTVSS	low polyreactivity
